The supplement of paper PMC10065799, “High-throughput profiling of sequence recognition by tyrosine kinases and SH2 domains using bacterial peptide display” (eLife, 2023)

What was measured:
SHP2-C SH2 = experiment: SH2 binding enrichment of the phosphorylated peptide, bacterial display (enrichment ratio); higher = better substrate or ligand; peptides without Tyr show the background
c-Src SH2 = experiment: as above
Grb2 SH2 = Grb2 SH2 (UniProt P62993); experiment: as above
Fer (mouse) = experiment: phosphorylation enrichment, bacterial display (enrichment ratio); higher = better substrate or ligand; peptides without Tyr show the background
c-Abl (mouse) = experiment: as above
FGFR3 = FGFR3 (UniProt P22607); experiment: as above
EPHB2 = EPHB2 (UniProt P29323); experiment: as above
EPHB1 = EPHB1 (UniProt P54762); experiment: as above
c-Src = experiment: as above
Fes = Fes (UniProt P07332); experiment: as above
AncSZ = experiment: as above
MERTK = MERTK (UniProt Q12866); experiment: as above
Hck = Hck (UniProt P08631); experiment: as above
FGFR1 = FGFR1 (UniProt P11362); experiment: as above
Jak2 = Jak2 (UniProt O60674); experiment: as above
Fyn = Fyn (UniProt P06241); experiment: as above
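Wherever SH2 binding enrichment of the phosphorylated peptide, bacterial display is given: peptide library displayed on the E. coli surface as eCPX fusions, selected cells deep-sequenced, score is each peptide's frequency after selection divided by its frequency in the input.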
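Wherever phosphorylation enrichment, bacterial display is given: 11-residue human phosphosite peptides and single-mutation variants displayed on the E. coli surface, counted by deep sequencing, each peptide's frequency after selection divided by its frequency in the unselected input library; frequency after pTyr selection over input frequency; kinase dosed for 20-30% of maximal phosphorylation in three min.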

Sequence of FGFR1 (P11362 whole entry, looked up): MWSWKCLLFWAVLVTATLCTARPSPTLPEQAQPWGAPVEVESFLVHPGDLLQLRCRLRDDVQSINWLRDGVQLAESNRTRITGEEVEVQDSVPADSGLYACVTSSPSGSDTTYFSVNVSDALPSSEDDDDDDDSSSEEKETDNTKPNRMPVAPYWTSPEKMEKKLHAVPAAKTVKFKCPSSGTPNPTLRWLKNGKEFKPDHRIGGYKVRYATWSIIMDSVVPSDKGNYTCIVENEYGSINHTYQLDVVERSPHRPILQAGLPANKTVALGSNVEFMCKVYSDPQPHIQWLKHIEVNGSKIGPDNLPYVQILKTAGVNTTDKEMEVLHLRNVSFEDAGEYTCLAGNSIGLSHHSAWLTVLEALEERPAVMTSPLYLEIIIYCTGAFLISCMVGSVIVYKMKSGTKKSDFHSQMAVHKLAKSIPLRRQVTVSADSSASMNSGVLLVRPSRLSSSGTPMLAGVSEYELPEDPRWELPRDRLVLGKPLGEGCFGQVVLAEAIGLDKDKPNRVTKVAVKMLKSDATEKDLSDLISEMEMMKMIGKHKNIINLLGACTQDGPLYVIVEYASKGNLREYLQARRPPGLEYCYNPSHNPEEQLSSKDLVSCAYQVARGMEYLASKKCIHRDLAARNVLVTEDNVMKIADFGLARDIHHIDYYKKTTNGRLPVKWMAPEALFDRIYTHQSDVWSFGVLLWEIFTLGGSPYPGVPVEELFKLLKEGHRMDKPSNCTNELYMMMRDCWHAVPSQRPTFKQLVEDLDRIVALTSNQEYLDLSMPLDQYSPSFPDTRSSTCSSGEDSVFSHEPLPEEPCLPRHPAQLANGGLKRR
Sequence of Fyn (P06241 whole entry, looked up, the tested form may be a part): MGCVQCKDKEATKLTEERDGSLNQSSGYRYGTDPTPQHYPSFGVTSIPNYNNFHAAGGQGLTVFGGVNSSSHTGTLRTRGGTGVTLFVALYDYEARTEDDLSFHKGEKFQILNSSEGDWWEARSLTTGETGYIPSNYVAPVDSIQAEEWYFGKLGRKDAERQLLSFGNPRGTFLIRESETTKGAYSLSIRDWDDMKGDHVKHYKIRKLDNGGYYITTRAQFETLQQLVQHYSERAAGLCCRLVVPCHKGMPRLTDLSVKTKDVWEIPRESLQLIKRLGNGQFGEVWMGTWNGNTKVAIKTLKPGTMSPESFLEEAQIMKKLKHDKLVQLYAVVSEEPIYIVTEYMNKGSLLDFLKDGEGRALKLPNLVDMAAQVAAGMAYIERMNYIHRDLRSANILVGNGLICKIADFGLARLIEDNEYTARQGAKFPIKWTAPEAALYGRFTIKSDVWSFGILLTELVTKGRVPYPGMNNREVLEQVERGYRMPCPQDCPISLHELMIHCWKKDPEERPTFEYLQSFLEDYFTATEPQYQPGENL
Sequence of EPHB1 (P54762 whole entry, looked up): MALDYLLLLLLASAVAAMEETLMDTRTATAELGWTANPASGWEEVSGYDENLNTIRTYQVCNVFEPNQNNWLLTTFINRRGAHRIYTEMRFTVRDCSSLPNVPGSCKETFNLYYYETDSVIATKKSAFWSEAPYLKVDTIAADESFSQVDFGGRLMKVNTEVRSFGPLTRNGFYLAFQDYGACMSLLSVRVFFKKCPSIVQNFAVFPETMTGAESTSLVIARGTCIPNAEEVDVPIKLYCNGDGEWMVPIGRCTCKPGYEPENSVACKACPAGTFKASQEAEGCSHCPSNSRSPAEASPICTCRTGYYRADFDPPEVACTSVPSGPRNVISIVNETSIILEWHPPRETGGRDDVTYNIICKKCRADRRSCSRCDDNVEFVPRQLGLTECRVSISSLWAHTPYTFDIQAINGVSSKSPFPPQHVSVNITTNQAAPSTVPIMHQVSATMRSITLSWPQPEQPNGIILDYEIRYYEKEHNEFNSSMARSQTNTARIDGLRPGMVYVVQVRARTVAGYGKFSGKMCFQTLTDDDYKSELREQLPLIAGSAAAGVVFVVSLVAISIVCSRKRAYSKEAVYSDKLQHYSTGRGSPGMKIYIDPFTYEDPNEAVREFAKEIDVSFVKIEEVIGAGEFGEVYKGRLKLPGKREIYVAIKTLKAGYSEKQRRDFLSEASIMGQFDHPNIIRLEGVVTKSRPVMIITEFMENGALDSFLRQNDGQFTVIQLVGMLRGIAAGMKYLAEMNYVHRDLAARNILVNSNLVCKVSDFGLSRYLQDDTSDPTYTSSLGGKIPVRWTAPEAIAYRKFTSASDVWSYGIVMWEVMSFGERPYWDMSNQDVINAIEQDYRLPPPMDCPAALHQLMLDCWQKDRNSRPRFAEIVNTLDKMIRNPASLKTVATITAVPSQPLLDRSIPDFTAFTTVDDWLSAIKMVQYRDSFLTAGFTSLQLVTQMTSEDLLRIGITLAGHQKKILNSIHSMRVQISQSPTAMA
Sequence of EPHB2 (P29323 whole entry, looked up): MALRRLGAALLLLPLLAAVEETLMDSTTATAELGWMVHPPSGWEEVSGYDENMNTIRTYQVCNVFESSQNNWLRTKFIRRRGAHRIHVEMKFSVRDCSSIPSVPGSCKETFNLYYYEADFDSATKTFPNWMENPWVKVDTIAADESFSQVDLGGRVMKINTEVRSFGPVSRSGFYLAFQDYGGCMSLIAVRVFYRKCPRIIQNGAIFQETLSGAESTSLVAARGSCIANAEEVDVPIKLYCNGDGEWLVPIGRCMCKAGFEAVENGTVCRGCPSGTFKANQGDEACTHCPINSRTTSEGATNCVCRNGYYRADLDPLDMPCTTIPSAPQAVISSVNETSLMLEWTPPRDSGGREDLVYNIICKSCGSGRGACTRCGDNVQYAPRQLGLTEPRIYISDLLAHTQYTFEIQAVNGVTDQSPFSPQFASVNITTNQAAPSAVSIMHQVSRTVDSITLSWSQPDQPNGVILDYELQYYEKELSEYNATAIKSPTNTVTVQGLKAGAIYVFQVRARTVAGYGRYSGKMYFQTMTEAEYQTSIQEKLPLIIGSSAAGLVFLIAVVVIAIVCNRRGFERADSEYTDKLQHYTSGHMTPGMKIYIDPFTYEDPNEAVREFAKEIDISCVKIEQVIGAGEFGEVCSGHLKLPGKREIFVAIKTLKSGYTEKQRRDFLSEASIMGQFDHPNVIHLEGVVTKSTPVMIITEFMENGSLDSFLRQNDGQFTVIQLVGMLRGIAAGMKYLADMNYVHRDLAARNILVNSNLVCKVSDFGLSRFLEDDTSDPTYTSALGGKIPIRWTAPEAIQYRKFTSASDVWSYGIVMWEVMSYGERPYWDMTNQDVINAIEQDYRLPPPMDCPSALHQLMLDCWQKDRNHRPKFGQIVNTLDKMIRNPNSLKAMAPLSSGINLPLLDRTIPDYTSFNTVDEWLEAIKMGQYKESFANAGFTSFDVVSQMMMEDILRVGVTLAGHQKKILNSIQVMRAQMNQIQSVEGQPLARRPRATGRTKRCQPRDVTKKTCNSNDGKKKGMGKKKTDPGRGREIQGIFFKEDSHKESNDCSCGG
Sequence of Hck (P08631 whole entry, looked up): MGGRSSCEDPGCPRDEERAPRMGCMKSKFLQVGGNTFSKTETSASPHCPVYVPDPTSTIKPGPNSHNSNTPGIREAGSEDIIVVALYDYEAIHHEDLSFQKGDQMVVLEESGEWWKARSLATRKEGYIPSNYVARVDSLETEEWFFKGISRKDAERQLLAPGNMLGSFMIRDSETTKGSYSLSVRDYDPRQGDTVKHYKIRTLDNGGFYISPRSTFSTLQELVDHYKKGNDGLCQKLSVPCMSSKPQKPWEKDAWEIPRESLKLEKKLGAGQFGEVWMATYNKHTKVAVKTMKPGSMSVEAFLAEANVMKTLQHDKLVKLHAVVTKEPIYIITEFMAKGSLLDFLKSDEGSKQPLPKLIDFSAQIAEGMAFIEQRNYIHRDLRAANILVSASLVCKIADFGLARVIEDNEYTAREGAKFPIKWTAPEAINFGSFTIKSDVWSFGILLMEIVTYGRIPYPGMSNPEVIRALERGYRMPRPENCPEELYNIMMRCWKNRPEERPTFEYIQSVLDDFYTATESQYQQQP
Sequence of FGFR3 (P22607 whole entry, looked up): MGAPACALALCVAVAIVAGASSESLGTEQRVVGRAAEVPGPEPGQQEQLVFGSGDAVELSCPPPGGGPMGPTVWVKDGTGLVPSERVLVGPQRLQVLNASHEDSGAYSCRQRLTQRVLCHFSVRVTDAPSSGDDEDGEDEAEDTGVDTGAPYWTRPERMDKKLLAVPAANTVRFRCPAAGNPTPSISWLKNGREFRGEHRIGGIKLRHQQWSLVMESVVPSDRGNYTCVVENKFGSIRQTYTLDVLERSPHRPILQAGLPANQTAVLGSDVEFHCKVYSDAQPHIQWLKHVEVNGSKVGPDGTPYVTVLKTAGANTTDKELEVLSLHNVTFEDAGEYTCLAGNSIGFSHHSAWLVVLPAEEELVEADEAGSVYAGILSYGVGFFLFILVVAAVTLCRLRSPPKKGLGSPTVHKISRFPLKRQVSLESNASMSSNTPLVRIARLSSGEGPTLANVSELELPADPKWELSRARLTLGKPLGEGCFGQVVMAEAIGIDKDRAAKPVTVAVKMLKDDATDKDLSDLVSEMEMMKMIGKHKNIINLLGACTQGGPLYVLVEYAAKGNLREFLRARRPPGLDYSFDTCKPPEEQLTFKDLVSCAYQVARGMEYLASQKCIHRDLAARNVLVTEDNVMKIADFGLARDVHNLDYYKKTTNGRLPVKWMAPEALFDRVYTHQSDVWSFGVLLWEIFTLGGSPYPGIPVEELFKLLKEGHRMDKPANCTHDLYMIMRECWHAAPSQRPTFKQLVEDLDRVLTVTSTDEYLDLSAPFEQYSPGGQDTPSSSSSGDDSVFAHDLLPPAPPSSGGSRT
Sequence of Grb2 SH2 (P62993 whole entry, looked up): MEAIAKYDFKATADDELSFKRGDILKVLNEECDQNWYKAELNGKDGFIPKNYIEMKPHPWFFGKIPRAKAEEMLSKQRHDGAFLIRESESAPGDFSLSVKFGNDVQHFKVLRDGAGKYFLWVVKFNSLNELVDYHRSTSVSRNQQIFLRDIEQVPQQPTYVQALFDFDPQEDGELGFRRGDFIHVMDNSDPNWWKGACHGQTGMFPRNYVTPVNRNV

Sequence | SH2 binding enrichment (SHP2-C SH2) | SH2 binding enrichment (c-Src SH2) | SH2 binding enrichment (Grb2 SH2) | phosphorylation enrichment (Fer (mouse)) | phosphorylation enrichment (c-Abl (mouse)) | phosphorylation enrichment (FGFR3) | phosphorylation enrichment (EPHB2) | phosphorylation enrichment (EPHB1) | phosphorylation enrichment (c-Src) | phosphorylation enrichment (Fes) | phosphorylation enrichment (AncSZ) | phosphorylation enrichment (MERTK) | phosphorylation enrichment (Hck) | phosphorylation enrichment (FGFR1) | phosphorylation enrichment (Jak2) | phosphorylation enrichment (Fyn)
AKRKNYAPVAM [CFAP47_Y557] | 1.26 | 1.05 | 1.11 | 0.302 | 0.57 | 0.371 | 0.425 | 0.648 | 0.432 | 0.521 | 0.562 | 0.468 | 0.392 | 0.654 | 0.341 | 0.393
ALCHYYKLNII [ETV6_Y402_R399C] | 1.34 | 0.855 | 0.895 | 0.615 | 2 | 5.13 | 0.738 | 0.97 | 1.54 | 1.62 | 1.59 | 2.26 | 1.09 | 5.97 | 3.3 | 0.798
APSGNYVACGG [GNB1_Y111] | 0.804 | 1.42 | 0.956 | 0.513 | 0.584 | 1.07 | 0.691 | 0.822 | 0.301 | 0.788 | 1.13 | 0.437 | 0.429 | 0.478 | 0.571 | 0.363
APSHAYHRGVL [ANO1_Y981_G983R] | 0.899 | 0.679 | 0.988 | 0.411 | 0.51 | 0.472 | 0.355 | 0.363 | 0.426 | 0.583 | 0.507 | 0.38 | 0.385 | 0.395 | 0.534 | 0.424
APTSGYQEFVH [IL4R_Y575] | 0.668 | 2.99 | 0.826 | 0.401 | 0.524 | 0.51 | 0.535 | 0.36 | 0.419 | 0.764 | 0.741 | 0.426 | 0.503 | 0.539 | 0.611 | 0.545
AQINLYQDVML [ZNF806_Y33] | 0.68 | 0.685 | 0.886 | 15.4 | 0.928 | 1.29 | 8.39 | 15 | 1.05 | 2.83 | 1.25 | 2.17 | 2.05 | 1.14 | 1.01 | 1.15
AQMAMYFWEMS [TRPM4_Y577_G582S] | 1.08 | 0.852 | 1.15 | 0.9 | 1.14 | 2.88 | 1.05 | 1.09 | 2.52 | 1.73 | 1.86 | 2.5 | 1.18 | 3.42 | 1.61 | 1.15
ARKCKYFKKHE [NFIX_Y40_R38C] | 0.847 | 0.646 | 1.1 | 0.443 | 0.75 | 0.565 | 0.403 | 0.452 | 0.545 | 0.974 | 0.619 | 0.486 | 0.48 | 0.428 | 0.596 | 0.463
ASELGYVFQAI [UROD_Y133] | 0.475 | 0.771 | 0.986 | 0.386 | 0.545 | 0.749 | 0.566 | 0.471 | 0.423 | 0.852 | 1.03 | 0.264 | 0.378 | 0.483 | 0.924 | 0.397
ASLLPYFPAIM [IPO4_Y518] | 0.806 | 0.672 | 1.15 | 0.532 | 0.626 | 0.694 | 0.576 | 0.479 | 0.457 | 0.938 | 0.782 | 0.364 | 0.484 | 0.537 | 0.802 | 0.544
ASTDYYKRGDF [PDHA1_Y243] | 0.753 | 0.44 | 0.767 | 0.321 | 0.559 | 0.501 | 0.409 | 0.287 | 0.5 | 0.71 | 0.685 | 0.369 | 0.465 | 0.436 | 0.754 | 0.368
ATGGFYSYGGG [KRT24_Y120] | 0.871 | 0.858 | 0.82 | 4.4 | 0.763 | 0.659 | 0.885 | 0.881 | 1.26 | 1.11 | 0.906 | 11.6 | 1.8 | 0.506 | 0.858 | 2.39
ATHSRYRLNDF [CLDN14_Y233_G232R_YF] | 0.825 | 0.674 | 0.935 | 0.349 | 0.546 | 0.308 | 0.337 | 0.296 | 0.36 | 0.706 | 0.419 | 0.391 | 0.449 | 0.307 | 0.413 | 0.329
ATLDVYNPFET [SCAMP3_Y41] | 0.524 | 0.536 | 0.872 | 0.581 | 0.838 | 0.652 | 0.537 | 0.629 | 3.24 | 1.42 | 1.09 | 0.556 | 2.15 | 0.52 | 1.37 | 2.49
TCRPPYYHRNC [HGD_Y333_F329C] | 3.31 | 1.01 | 1.76 | 0.233 | 0.197 | 0.493 |  |  | 0.251 | 0.713 | 0.243 | 0.235 | 0.218 | 0.398 | 0.162 | 0.093
